Assays:
[1] = target: the molecule itself; assay: Assembly column; screening of labeled lysates; self-assembly
[2] = target: the molecule itself; assay: Assembly column; self-assembly
[3] = target: the molecule itself; assay: analytical SEC of purified protein; self-assembly
[4] = target: the molecule itself; assay: analytical ultracentrifugation c(s) distribution at 4.8 and 2.4 mg mL^-1 (FIG. 4); self-assembly

B1: T3-08, construct with peptide tag for fluorescent labeling, in labeled E. coli lysate (designed binder)
chain: MTEKEKMLAEKWYDANFDQTLINERLRAKVICFALNHTNPSATLKRKVLIDALFQTTTDNVSISIPFDTDYGWNVKLGKNVYVNTNCYFMDGGQITIGDNVFIGPNCGFYTATHPLNFHHRNEGFEKAGPIHIGSNTWFGGHVAVLPGVTIGEGSVIGAGSVVTKDIPPHSLAVGNPCKVVRKIDNDLPSETLNDETIK
modifications: peptide tag labeled with CoA-488 by AcpS
notes: also called tetrahedral design
B1: binds [1].

B2: O3-33, construct with peptide tag for fluorescent labeling, in labeled E. coli lysate (designed binder)
chain: MSQAIGILELTSIAAGMELGDAMLKSANVDLLVSKTISPGKFLLMLGGDIGAIQQAIETGTSQAGELLVDSLVLANIHPSVLPAISGLNSVDKRQAVGIVETWSVAACISAADRAVKGSNVTLVRVHMAFGIGGKCYMVVAGDVSDVALAVTVASSSAGAYGLLVYASLIPRPHEAMWRQMVEG
modifications: peptide tag labeled with CoA-488 by AcpS
notes: also called octahedral design
B2: binds [1].

B3: T3-10 with C-terminal (His)6 tag (designed binder)
chain: MTEKEKMLAEKWYDANFDQTLINERLRAKVICFALNHTNPVATMMRKVLIDALFQTTTDNVSISIPFDTDYGWNVKLGKNVYVNTNCYFMDGGQITIGDNVFIGPNCGFYTATHPLNFHHRNEGFEKAGPIHIGSNTWFGGHVAVLPGVTIGEGSVIGAGSVVTKDIPPHSLAVGNPCKVVRKIDNDLPSETLNDETIKLEHHHHHH
notes: Variant of T3-08 with 3 further mutations
B3: binds [2].

B4: T3-08 with C-terminal (His)6 tag (designed binder)
chain: MTEKEKMLAEKWYDANFDQTLINERLRAKVICFALNHTNPSATLKRKVLIDALFQTTTDNVSISIPFDTDYGWNVKLGKNVYVNTNCYFMDGGQITIGDNVFIGPNCGFYTATHPLNFHHRNEGFEKAGPIHIGSNTWFGGHVAVLPGVTIGEGSVIGAGSVVTKDIPPHSLAVGNPCKVVRKIDNDLPSETLNDETIKLEHHHHHH
notes: four trimers assemble to a 12-subunit tetrahedral cage; Derived from PDB 3FTT with 8 mutations; also called tetrahedral design
B4: binds [3].

B5: O3-33 with C-terminal (His)6 tag (designed binder)
chain: MSQAIGILELTSIAAGMELGDAMLKSANVDLLVSKTISPGKFLLMLGGDIGAIQQAIETGTSQAGELLVDSLVLANIHPSVLPAISGLNSVDKRQAVGIVETWSVAACISAADRAVKGSNVTLVRVHMAFGIGGKCYMVVAGDVSDVALAVTVASSSAGAYGLLVYASLIPRPHEAMWRQMVEGLEHHHHHH
notes: eight trimers self-assemble through the designed interface to a 24-subunit octahedral cage; Derived from PDB 3N79 with 9 mutations; also called 03-33; octahedral design
B5: binds [4].

— patent US20130274441A1 (University of California, published 2013)
